Test results as given in the supplement of paper PMC10567573.

B1: CDKN1A (parent)
chain: RRQTSMTDFYHSKRRLIFSKRKP

Variants of: B1
Test: protein stability index of a GFP-peptide fusion (GPS, HEK-293T) (PSI 1-6); higher = more stable
Settings: c terminus: native
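Further: lentivirally expressed fusions sorted by FACS into six bins by GFP to DsRed ratio, PSI derived from sequencing read proportions per bin multiplied by bin number.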

| Variant | protein stability index |
| --- | --- |
| RRQTSMTDFYHGKRRLIFSKRKP | 2.07 |
| RRQTSMTDFYHCKRRLIFSKRKP | 2.98 |
| RRQTSMTDFYHEKRRLIFSKRKP | 2.92 |
| RRQTSMTDFYHWKRRLIFSKRKP | 2.39 |
| RRQTSMTDFYHIKRRLIFSKRKP | 3.96 |
| RRQTSMTDFYHFKRRLIFSKRKP | 1.59 |
| RRQTSMTDFYHNKRRLIFSKRKP | 3.42 |
| RRQTSMTDFYHVKRRLIFSKRKP | 2.01 |
| RRQTSMTDFYHMKRRLIFSKRKP | 2.75 |
| RRQTSMTDFYHPKRRLIFSKRKP | 2.31 |
| RRQTSMTDFYHYKRRLIFSKRKP | 2.15 |
| RRQTSMTDFYHAKRRLIFSKRKP | 2.99 |
| RRQTSYTDFYHSKRRLIFSKRKP | 1.92 |
| RRQTSFTDFYHSKRRLIFSKRKP | 2.03 |
| RRQTSHTDFYHSKRRLIFSKRKP | 2.36 |
| RRQTSITDFYHSKRRLIFSKRKP | 2.14 |
| RRQTSNTDFYHSKRRLIFSKRKP | 3.37 |
| RRQTSKTDFYHSKRRLIFSKRKP | 3.44 |
| RRQTSATDFYHSKRRLIFSKRKP | 2.57 |
| RRQTSDTDFYHSKRRLIFSKRKP | 1.96 |
| RRQTSLTDFYHSKRRLIFSKRKP | 2.93 |
| RRQTSWTDFYHSKRRLIFSKRKP | 2.56 |
| RRQTSPTDFYHSKRRLIFSKRKP | 1.34 |
| RRQRSMTDFYHSKRRLIFSKRKP | 1.8 |
| RRQVSMTDFYHSKRRLIFSKRKP | 3.23 |

| Variant | protein stability index |
| --- | --- |
| RRQYSMTDFYHSKRRLIFSKRKP | 2.22 |
| RRQSSMTDFYHSKRRLIFSKRKP | 2.62 |
| RRQWSMTDFYHSKRRLIFSKRKP | 4.11 |
| RRQTSMTDFYHSKRRLIESKRKP | 3.49 |
| RRQTSMTDFYHSKRRLIASKRKP | 2.87 |
| RRQTSMTDFYHSKRRLIQSKRKP | 1.79 |
| RRQTSMTDFYHSKRRLIWSKRKP | 2.28 |
| RRQTSMTDFYHSKRRLITSKRKP | 2.45 |
| RRQTSMTDFYHSKRRLIYSKRKP | 2.46 |
| RRQTSMTDFYHSKRRLIRSKRKP | 2.05 |
| RRQTSMTDFYHSKRRLILSKRKP | 1.65 |
| RRQTSMTDFYHSKRRLIPSKRKP | 2.82 |
| RRQTSMTDFYHSKRRLISSKRKP | 3.17 |
| RRQTSMTDFYHSKRRLIISKRKP | 2.23 |
| RRQTSMTDFYHSKRRLICSKRKP | 1.69 |
| RRQTSMTDFYHSKRRLIDSKRKP | 3.34 |
| RRQTSMTDFYHSKRRLIKSKRKP | 2.26 |
| RRQTSMTDFYHSKRRLIVSKRKP | 2.3 |
| RRQTCMTDFYHSKRRLIFSKRKP | 1.67 |
| RRQTMMTDFYHSKRRLIFSKRKP | 2.73 |
| RRQTYMTDFYHSKRRLIFSKRKP | 2.19 |
| RRQTLMTDFYHSKRRLIFSKRKP | 2.69 |
| RRQTVMTDFYHSKRRLIFSKRKP | 2.27 |
| RRQTDMTDFYHSKRRLIFSKRKP | 2.95 |
| RRQTRMTDFYHSKRRLIFSKRKP | 2.53 |

| Variant | protein stability index |
| --- | --- |
| RRQTGMTDFYHSKRRLIFSKRKP | 3.9 |
| RRQTPMTDFYHSKRRLIFSKRKP | 1.9 |
| RRQTAMTDFYHSKRRLIFSKRKP | 3 |
| RRQTTMTDFYHSKRRLIFSKRKP | 2.38 |
| RRQTHMTDFYHSKRRLIFSKRKP | 3.12 |
| RRQTKMTDFYHSKRRLIFSKRKP | 2.87 |
| RRQTFMTDFYHSKRRLIFSKRKP | 1.93 |
| RRQTQMTDFYHSKRRLIFSKRKP | 2.55 |
| RRQTNMTDFYHSKRRLIFSKRKP | 1.73 |
| RRQTEMTDFYHSKRRLIFSKRKP | 2.5 |
| RRQTSMTDFYHSKWRLIFSKRKP | 3.61 |
| RRQTSMTDFYHSKIRLIFSKRKP | 2.18 |
| RRQTSMTDFYHSKDRLIFSKRKP | 2.81 |
| RRQTSMTDFYHSKSRLIFSKRKP | 1.83 |
| RRQTSMTDFYHSKQRLIFSKRKP | 4.01 |
| RRQTSMTDFYHSKLRLIFSKRKP | 3.27 |
| RRQTSMTDFYHSKERLIFSKRKP | 3.86 |
| RRQTSMTDFYHSKTRLIFSKRKP | 1.99 |
| RRQTSMTDFYHSKMRLIFSKRKP | 3.31 |
| RRQTSMTDFYHSKCRLIFSKRKP | 2.69 |
| RRQTSMTDFYHSKNRLIFSKRKP | 2.75 |
| RRQTSMTDFYHSKARLIFSKRKP | 2.14 |
| RRQTSMTDFYHSKKRLIFSKRKP | 4.64 |
| RRQTSMTDFYHSKHRLIFSKRKP | 4.02 |
| RRQTSMTDFYGSKRRLIFSKRKP | 2.88 |

| Variant | protein stability index |
| --- | --- |
| RRQTSMTDFYLSKRRLIFSKRKP | 3.32 |
| RRQTSMTDFYVSKRRLIFSKRKP | 1.43 |
| RRQTSMTDFYISKRRLIFSKRKP | 2.03 |
| RRQTSMTDFYPSKRRLIFSKRKP | 2.49 |
| RRQTSMTDFYASKRRLIFSKRKP | 2.49 |
| RRQTSMTDFYQSKRRLIFSKRKP | 2.55 |
| RRQTSMTDFYESKRRLIFSKRKP | 2.37 |
| RRQTSMTDFYSSKRRLIFSKRKP | 2.69 |
| RRQTSMTDFYKSKRRLIFSKRKP | 3.46 |
| RRQTSMTDFYNSKRRLIFSKRKP | 1.47 |
| RRQTSMTDFYDSKRRLIFSKRKP | 1.65 |
| RRQTSMTDFYYSKRRLIFSKRKP | 1.66 |
| RRQTSMTDFYFSKRRLIFSKRKP | 2.93 |
| RRQTSMTDFYHSKRRLKFSKRKP | 1.86 |
| RRQTSMTDFYHSKRRLGFSKRKP | 1.79 |
| RRQTSMTDFYHSKRRLLFSKRKP | 3.47 |
| RRQTSMTDFYHSKRRLSFSKRKP | 2.99 |
| RRQTSMTDFYHSKRRLYFSKRKP | 2.76 |
| RRQTSMTDFYHSKRRLAFSKRKP | 2.48 |
| RRQTSMTDFYHSKRRLEFSKRKP | 3.68 |
| RRQTSMTDFYHSKRRLMFSKRKP | 3.71 |
| RRQTSMTDFYHSKRRLPFSKRKP | 3.06 |
| RRQTSMTDFYHSKRRLTFSKRKP | 2.63 |
| RRQTSMTDFYHSKRRYIFSKRKP | 1.65 |
| RRQTSMTDFYHSKRRHIFSKRKP | 2.87 |

| Variant | protein stability index |
| --- | --- |
| RRQTSMTDFYHSKRRSIFSKRKP | 2.86 |
| RRQTSMTDFYHSKRRMIFSKRKP | 1.54 |
| RRQTSMTDFYHSKRRKIFSKRKP | 2.21 |
| RRQTSMTDFYHSKRRFIFSKRKP | 3.4 |
| RRQTSMTDFYHSKRRCIFSKRKP | 2.32 |
| RRQTSMTDFYHSKRRGIFSKRKP | 3.3 |
| RRQTSMTDFYHSKRRTIFSKRKP | 2.17 |
| RRQTSMTDFYHSKRRPIFSKRKP | 3.36 |
| RRQTSMTDFYHSKRRQIFSKRKP | 2.53 |
| RRQTSMTDFYHSKRRLIFNKRKP | 1.85 |
| RRQTSMTDFYHSKRRLIFIKRKP | 2.54 |
| RRQTSMTDFYHSKRRLIFHKRKP | 1.53 |
| RRQTSMTDFYHSKRRLIFCKRKP | 2.57 |
| RRQTSMTDFYHSKRRLIFPKRKP | 2.08 |
| RRQTSMTDFYHSKRRLIFLKRKP | 2.33 |
| RRQTSMTDFYHSKRRLIFKKRKP | 1.91 |
| RRQTSMTDFYHSKRRLIFFKRKP | 2.44 |
| RRQTSMTDFYHSKRRLIFAKRKP | 2.87 |
| RRQTSMTDFYHSKRRLIFDKRKP | 1.43 |
| RRQTSMTDFYHSKRRLIFMKRKP | 2.96 |
| RRQTSMTPFYHSKRRLIFSKRKP | 2.14 |
| RRQTSMTYFYHSKRRLIFSKRKP | 1.55 |
| RRQTSMTEFYHSKRRLIFSKRKP | 3.76 |
| RRQTSMTRFYHSKRRLIFSKRKP | 1.14 |
| RRQTSMTSFYHSKRRLIFSKRKP | 2.95 |

| Variant | protein stability index |
| --- | --- |
| RRQTSMTTFYHSKRRLIFSKRKP | 3.06 |
| RRQTSMTFFYHSKRRLIFSKRKP | 3.24 |
| RRQTSMTGFYHSKRRLIFSKRKP | 2.29 |
| RRQTSMTLFYHSKRRLIFSKRKP | 2.32 |
| RRQTSMTKFYHSKRRLIFSKRKP | 3.12 |
| RRQTSMTMFYHSKRRLIFSKRKP | 2.65 |
| RRQTSMLDFYHSKRRLIFSKRKP | 1.8 |
| RRQTSMQDFYHSKRRLIFSKRKP | 2.1 |
| RRQTSMWDFYHSKRRLIFSKRKP | 1.87 |
| RRQTSMNDFYHSKRRLIFSKRKP | 3.04 |
| RRQTSMYDFYHSKRRLIFSKRKP | 1.79 |
| RRQTSMSDFYHSKRRLIFSKRKP | 2.44 |
| RRQTSMCDFYHSKRRLIFSKRKP | 1.94 |
| RRQTSMHDFYHSKRRLIFSKRKP | 2.4 |
| RRQTSMKDFYHSKRRLIFSKRKP | 2.19 |
| RRQTSMFDFYHSKRRLIFSKRKP | 2.06 |
| RRQTSMEDFYHSKRRLIFSKRKP | 3.61 |
| RRQTSMRDFYHSKRRLIFSKRKP | 1.87 |
| RRQTSMTDFYHSKRILIFSKRKP | 3 |
| RRQTSMTDFYHSKRLLIFSKRKP | 2.47 |
| RRQTSMTDFYHSKRDLIFSKRKP | 3.82 |
| RRQTSMTDFYHSKRPLIFSKRKP | 2.52 |
| RRQTSMTDFYHSKRQLIFSKRKP | 2.41 |
| RRQTSMTDFYHSKRMLIFSKRKP | 3.54 |
| RRQTSMTDFYHSKRCLIFSKRKP | 3.8 |

| Variant | protein stability index |
| --- | --- |
| RRQTSMTDFYHSKRYLIFSKRKP | 2.23 |
| RRQTSMTDFYHSKRTLIFSKRKP | 2.34 |
| RRQTSMTDFYHSKRALIFSKRKP | 2.94 |
| RRQTSMTDKYHSKRRLIFSKRKP | 2.4 |
| RRQTSMTDHYHSKRRLIFSKRKP | 4.22 |
| RRQTSMTDRYHSKRRLIFSKRKP | 2.54 |
| RRQTSMTDLYHSKRRLIFSKRKP | 2.24 |
| RRQTSMTDTYHSKRRLIFSKRKP | 2.25 |
| RRQTSMTDYYHSKRRLIFSKRKP | 3.43 |
| RRQTSMTDGYHSKRRLIFSKRKP | 2.02 |
| RRQTSMTDIYHSKRRLIFSKRKP | 3.36 |
| RRQTSMTDCYHSKRRLIFSKRKP | 2.71 |
| RRQTSMTDDYHSKRRLIFSKRKP | 2.72 |
| RRQTSMTDVYHSKRRLIFSKRKP | 2.43 |
| RRQTSMTDFKHSKRRLIFSKRKP | 1.57 |
| RRQTSMTDFCHSKRRLIFSKRKP | 1.4 |
| RRQTSMTDFAHSKRRLIFSKRKP | 3.44 |
| RRQTSMTDFQHSKRRLIFSKRKP | 2.75 |
| RRQTSMTDFEHSKRRLIFSKRKP | 2.83 |
| RRQTSMTDFWHSKRRLIFSKRKP | 2.66 |
| RRQTSMTDFIHSKRRLIFSKRKP | 2.79 |
| RRQTSMTDFPHSKRRLIFSKRKP | 2.22 |
| RRQTSMTDFMHSKRRLIFSKRKP | 3.11 |
| RRQTSMTDFRHSKRRLIFSKRKP | 3.01 |
| RRQTSMTDFTHSKRRLIFSKRKP | 3.41 |

| Variant | protein stability index |
| --- | --- |
| RRQTSMTDFVHSKRRLIFSKRKP | 2.77 |
| RRQTSMTDFNHSKRRLIFSKRKP | 1.72 |
| RRQTSMTDFYHSERRLIFSKRKP | 3.4 |
| RRQTSMTDFYHSGRRLIFSKRKP | 1.81 |
| RRQTSMTDFYHSFRRLIFSKRKP | 2.44 |
| RRQTSMTDFYHSARRLIFSKRKP | 3 |
| RRQTSMTDFYHSYRRLIFSKRKP | 2.37 |
| RRQTSMTDFYHSTRRLIFSKRKP | 2.31 |
| RRQTSMTDFYHSNRRLIFSKRKP | 2.55 |
| RRQTSMTDFYHSCRRLIFSKRKP | 3.33 |
| RRQTSMTDFYHSLRRLIFSKRKP | 2.51 |
| RRQTSMTDFYHSSRRLIFSKRKP | 3.39 |
| RRQTSMTDFYHSIRRLIFSKRKP | 2.36 |
| RRQTSMTDFYHSDRRLIFSKRKP | 2.39 |
| RRQTSMTDFYHSPRRLIFSKRKP | 3.13 |
| RRQTSMTDFYHSQRRLIFSKRKP | 1.8 |
| RRQTSMTDFYHSHRRLIFSKRKP | 1.75 |
| RRQTSMTDFYHSWRRLIFSKRKP | 2.83 |
| RRQTSMTDFYHSVRRLIFSKRKP | 2.27 |
